Experiment in all cases: cell-based or functional assay
For test [1], the target named is Rac (active Rac-GTP, endogenous in NIH3T3 cells).
In test [2] the target is Rac (active Rac-GTP, endogenous in HUVECs) (human) (UniProt P31749).
Test [3] addresses Cdc42 (active Cdc42-GTP, endogenous in HUVECs) (human) (UniProt P60953).

Cdc42 (active Cdc42-GTP, endogenous in HUVECs) (human), sequence (P60953 1-188 limits assumed): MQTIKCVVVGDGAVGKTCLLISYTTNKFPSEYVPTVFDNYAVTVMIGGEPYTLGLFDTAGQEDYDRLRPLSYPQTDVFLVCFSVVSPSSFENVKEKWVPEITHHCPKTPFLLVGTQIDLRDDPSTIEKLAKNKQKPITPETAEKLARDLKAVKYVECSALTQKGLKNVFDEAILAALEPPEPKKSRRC
Rac (active Rac-GTP, endogenous in HUVECs) (human), sequence (P31749 whole entry): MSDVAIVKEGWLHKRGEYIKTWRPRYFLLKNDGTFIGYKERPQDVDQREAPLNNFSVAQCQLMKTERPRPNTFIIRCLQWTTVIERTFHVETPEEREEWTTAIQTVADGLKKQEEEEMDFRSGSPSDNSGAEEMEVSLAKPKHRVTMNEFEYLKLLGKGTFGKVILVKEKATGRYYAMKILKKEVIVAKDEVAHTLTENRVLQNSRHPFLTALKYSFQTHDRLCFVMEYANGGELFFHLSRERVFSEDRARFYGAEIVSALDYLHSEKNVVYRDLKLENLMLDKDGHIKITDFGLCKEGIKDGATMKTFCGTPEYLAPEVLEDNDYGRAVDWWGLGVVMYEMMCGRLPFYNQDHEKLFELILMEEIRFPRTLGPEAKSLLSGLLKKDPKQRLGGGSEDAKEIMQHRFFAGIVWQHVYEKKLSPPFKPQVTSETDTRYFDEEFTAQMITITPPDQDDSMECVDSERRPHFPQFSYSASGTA

As for “BNO69 (endogenous protein in NIH3T3 cells, knocked down by retroviral antisense BNO69R) (enzyme)”, the increase in Rac activity (Rac-GTP pull-down) in NIH3T3 cells after inhibition of BNO69 expression with antisense BNO69R in test [1] was found to be 3 fold. The substance “BNO69 (endogenous protein in HUVECs, knocked down by adenoviral antisense BNO69R) (from UniProt Q8N264 131-748) (enzyme)” showed a fold increase in active Rac in HUVECs after BNO69 knockdown with BNO69R, compared to empty vector in test [2] of 1.1 fold. Besides, in test [3], the fold increase in active Cdc42 in HUVECs after BNO69 knockdown with BNO69R, compared to empty vector stood at 1.1 fold.

These data come from patent US20080119430A1.
